Test results published in patent US20220056111A1 (YUROGEN BIOSYSTEMS, published 2022).

T1: HKU1 S1 and S2 protein (HKU1, UniProt Q5MQD0 13-1300)
T1 construct: domain: S1 and S2
T1 sequence: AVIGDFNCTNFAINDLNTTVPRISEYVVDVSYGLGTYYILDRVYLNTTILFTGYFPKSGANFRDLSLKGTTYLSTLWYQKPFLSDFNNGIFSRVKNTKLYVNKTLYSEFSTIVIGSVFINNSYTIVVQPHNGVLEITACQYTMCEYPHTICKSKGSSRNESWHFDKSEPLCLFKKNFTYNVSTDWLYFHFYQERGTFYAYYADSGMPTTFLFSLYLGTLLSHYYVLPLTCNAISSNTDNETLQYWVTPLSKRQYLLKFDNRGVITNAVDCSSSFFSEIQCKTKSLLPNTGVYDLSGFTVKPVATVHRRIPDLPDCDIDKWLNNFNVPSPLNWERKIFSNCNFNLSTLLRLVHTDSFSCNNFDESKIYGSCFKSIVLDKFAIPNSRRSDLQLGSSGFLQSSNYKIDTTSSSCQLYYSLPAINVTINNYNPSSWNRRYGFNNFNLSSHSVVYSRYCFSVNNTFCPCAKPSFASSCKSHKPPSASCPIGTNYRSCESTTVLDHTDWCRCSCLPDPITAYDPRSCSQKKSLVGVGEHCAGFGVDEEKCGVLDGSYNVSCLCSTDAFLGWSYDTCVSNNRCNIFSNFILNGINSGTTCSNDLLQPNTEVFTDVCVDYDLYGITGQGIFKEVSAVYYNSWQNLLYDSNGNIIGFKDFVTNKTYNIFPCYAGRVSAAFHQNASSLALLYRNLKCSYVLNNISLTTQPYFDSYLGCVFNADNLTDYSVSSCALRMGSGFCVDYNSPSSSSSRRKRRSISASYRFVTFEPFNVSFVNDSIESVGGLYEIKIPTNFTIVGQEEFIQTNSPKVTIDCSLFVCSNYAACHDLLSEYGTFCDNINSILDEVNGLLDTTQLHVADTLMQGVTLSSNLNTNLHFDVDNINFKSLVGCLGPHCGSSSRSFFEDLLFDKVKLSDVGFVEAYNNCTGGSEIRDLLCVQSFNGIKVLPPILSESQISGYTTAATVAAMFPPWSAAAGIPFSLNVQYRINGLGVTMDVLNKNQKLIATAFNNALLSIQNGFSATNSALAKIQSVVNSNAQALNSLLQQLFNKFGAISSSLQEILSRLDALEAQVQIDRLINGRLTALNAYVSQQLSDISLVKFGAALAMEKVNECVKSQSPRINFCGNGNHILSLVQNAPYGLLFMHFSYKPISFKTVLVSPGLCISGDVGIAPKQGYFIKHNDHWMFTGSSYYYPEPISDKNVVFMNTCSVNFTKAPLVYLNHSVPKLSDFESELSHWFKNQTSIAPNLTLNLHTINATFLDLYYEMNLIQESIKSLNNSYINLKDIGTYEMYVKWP

T2: HcoV-NL63 S protein (HcoV-NL63, UniProt Q6Q1S2 19-1296)
T2 construct: also called hCov-NL63 S1
T2 sequence: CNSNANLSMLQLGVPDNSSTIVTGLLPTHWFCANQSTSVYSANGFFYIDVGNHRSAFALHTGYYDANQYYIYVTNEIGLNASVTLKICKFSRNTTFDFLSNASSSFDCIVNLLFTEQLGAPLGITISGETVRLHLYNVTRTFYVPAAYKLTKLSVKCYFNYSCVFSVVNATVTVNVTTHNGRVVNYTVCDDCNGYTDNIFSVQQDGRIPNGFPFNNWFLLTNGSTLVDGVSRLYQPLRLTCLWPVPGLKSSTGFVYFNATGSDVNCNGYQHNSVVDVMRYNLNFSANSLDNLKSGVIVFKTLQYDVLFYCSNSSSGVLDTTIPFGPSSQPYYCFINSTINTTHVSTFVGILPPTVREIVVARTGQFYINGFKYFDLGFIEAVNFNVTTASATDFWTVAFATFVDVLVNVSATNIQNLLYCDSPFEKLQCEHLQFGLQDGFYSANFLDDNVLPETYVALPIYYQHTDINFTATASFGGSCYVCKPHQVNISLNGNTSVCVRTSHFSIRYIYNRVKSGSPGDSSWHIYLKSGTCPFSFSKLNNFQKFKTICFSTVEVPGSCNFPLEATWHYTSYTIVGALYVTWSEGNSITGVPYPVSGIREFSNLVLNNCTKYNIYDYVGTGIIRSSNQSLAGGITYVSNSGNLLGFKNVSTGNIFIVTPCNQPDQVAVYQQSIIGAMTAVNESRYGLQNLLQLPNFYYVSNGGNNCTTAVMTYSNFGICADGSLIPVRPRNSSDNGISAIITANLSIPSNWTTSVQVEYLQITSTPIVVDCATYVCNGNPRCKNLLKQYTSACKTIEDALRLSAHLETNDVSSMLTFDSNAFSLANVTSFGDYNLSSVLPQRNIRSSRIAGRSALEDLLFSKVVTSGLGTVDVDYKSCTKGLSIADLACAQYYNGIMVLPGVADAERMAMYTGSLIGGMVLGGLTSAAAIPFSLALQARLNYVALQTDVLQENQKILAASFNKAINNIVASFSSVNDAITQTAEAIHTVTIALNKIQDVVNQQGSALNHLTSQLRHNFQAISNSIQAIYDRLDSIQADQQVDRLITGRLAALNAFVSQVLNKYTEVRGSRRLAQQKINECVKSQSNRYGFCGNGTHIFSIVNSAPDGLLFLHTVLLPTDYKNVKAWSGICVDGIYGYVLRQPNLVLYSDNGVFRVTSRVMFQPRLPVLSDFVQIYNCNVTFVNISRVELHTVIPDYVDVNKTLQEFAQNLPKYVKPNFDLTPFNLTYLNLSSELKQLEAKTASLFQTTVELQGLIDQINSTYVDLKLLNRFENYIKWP


How the values were obtained:
Assay in all cases: direct ELISA, OD450
MERS-CoV Spike protein = MERS-CoV Spike protein (MERS-CoV, UniProt K9N5Q8 18-1296)
HKU1 S1 and S2 protein = target: T1, HKU1 S1 and S2 protein
HcoV-NL63 S protein = target: T2, HcoV-NL63 S protein

Binder	binding result (MERS-CoV Spike protein)	binding result (HKU1 S1 and S2 protein)	binding result (HcoV-NL63 S protein)
rabbit monoclonal antibody 9A5 against the SARS-CoV-2 S1 (antibody, V domains shown) VH: QSVEESGGRLVTPGTPLTLTCTVSGFSLSAYQMIWVRQTPGKGLEYIGIMHTGTSAYYANWAKGRFTISKTSSTTVDLKMTSPTTEDTATYFCGRNLNEGFTGAYPFNLWGPGTLVAVSS VL: DVVMTQTPASVEAAVGGTVTIKCQASQSIGSNLAWYQKKPGQPPKLLIYQASNLASGVPSRFKGSGSGTQFTLTISDLECADAATYYCQMNYYISSSYTYTFGGGTEVVVKG	no binding	no binding	no binding
rabbit monoclonal antibody 1A3 against the SARS-CoV-2 S1 (antibody, V domains shown) VH: QSLEESGGRLVTPGTPLTLTCTVSGFSFSSYHMGWVRQAPGEGLEWIGTLIGIAGNTYYASWAKGRFSISKTSTTVDLKMTSPTTEDTATYWCARIVTATFEFWGPGTLVTVSS VL: AQVLTQTPSPVSAAVGGTVTISCQASQSVNMNLLSWFQQKPGQPPKLLIYQASNLASGVSARFKGSGSGTQFTLTINEIQCDDAATYYCQGDMGGWMFPFGGGTEVVVTG	no binding	no binding	no binding
rabbit monoclonal antibody 1D2 against the SARS-CoV-2 S1 (antibody, V domains shown) VH: QSVEESGGRLVTPGTSLTLTCTVSGIDIETYWMSWVRQAPGKGLEWIAIITSHDHSGYANWAEGRFTISKTSTTVTLTITDLQPSDTGTYFCAKDVGHSTYDLWGPGTLVTVSS VL: AAVLTQTPSPVSAAVGGTVTISCQSSESVLSNNRLSWYQQKPGQPPKLLIYAASTLASGVPSRFKGRGSGTQFTLTISDVQCDDAAMYVCAGAFSGSSDTRAFGGGTEVVVKG			no binding
rabbit monoclonal antibody 7G5 against the SARS-CoV-2 S1 (antibody, V domains shown) VH: QEQLEESGGDLVKPGASLTLTCTASGFSFSSAYYMCWVRQAPGKGLEWIACIGVDSGGNSYYASWAKGRFTISTTSSTTVTLQMTSLTAADKATYFCTRSFSLWGPGTLVTISS VL: RKWLTQTASSVSAAVGGTVTISCQASQSVYNNDNLAWFQQRPGQPPKLLIYLASNLASGVPPRFSGSGSGTQFTLTISDVQCDDAATYYCLGGYDCSNADCHAFGGGTEVVVKG	no binding	no binding	no binding
rabbit monoclonal antibody 1H1 against the SARS-CoV-2 S1 (antibody, V domains shown) VH: QSLEESGGDLVKPGASLTLTCTASGFSFSSGYDMCWVRQAPGKGLEWIACIGTGSSGNIYYASWAKGRFTISKTSSTTVTLQMTSLTAADTATYFCARDDADYAGPDYFNLWGPGTLVTVSS VL: DIVMTQTPASVSEPVGGTVTIKCQASESISNWLAWYQQKPGQPPKLLIYAAFTLASGVPSRFKGSGSGTQFTLTINGVECADAATYYCQQTYSSRDVDNVFGGGTEVVVKG	no binding	no binding	no binding
